This test concerns the target BrvH, flavin-dependent halogenase (predicted gene 12 of the Botany Bay metagenome) (Brevundimonas BAL3 (most likely; gene found in the Botany Bay metagenome)). In words: SEC; 16/60 Superdex 200, 10 mM Tris 20 mM NaCl pH 8, 4 °C, flow rate 1 mL/min; last step of the purification for crystallisation. Background: In gel filtration, larger molecules generally elute earlier.

As usually defined, the stoichiometry N is the number of molecules, sites or subunits per partner or assembly. Take “BrvH, flavin-dependent halogenase (predicted gene 12 of the Botany Bay metagenome) (enzyme)”: the stoichiometry N was 2.
